Reference: patent US20200109211A1 (ELSALYS BIOTECH, published 2020)

T1: human CD160 (CD160 GPI isoform) on cells (human, UniProt O95971 25-159, GPI anchor)
T1 construct: whole, on cells; Used for all cells said to carry human CD160: transfected CHO-S and E300 cells and cells that carry it naturally (YT2C2, blood NK, CD8+ T, T CD4, CLL cells); also called hCD160; CHO-S-hCD160 (clone 2G10)
T1 sequence (looked up): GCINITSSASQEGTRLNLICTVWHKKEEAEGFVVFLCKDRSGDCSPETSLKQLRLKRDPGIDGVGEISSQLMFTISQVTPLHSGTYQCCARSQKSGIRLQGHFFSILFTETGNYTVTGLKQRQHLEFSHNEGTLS

T2: recombinant human CD160 protein, soluble form, with a C-terminal tag of 6 histidine residues (R&D SYSTEMS) (human, UniProt O95971 27-159, limits assumed, biotinylated with EZ-Link sulfo-NHS-LC-biotin for BLI and ELISA; not biotinylated when immobilised on the CM5 chip for SPR)
T2 construct: domain: soluble form; Bought protein; also called hCD160-his; biotinylated CD160
T2 sequence: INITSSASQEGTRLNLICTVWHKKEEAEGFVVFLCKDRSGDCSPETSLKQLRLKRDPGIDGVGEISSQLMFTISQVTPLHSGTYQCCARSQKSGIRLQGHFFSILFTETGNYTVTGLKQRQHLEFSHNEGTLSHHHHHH


Columns and labels:
[1] = molecular target: T1, human CD160 (CD160 GPI isoform) on cells; experiment: flow cytometry, percentage of labelled YT2C2 NK cells (2x10^5 cells), antibody 0.39 to 50 nM [panel C]
Experimental: (§1) The binding capacity of the anti-CD160 H7 antibody and of the H7 D12 variant in the IgG4, Fab and Fab-linker Fab format was evaluated during the labelling of surface CD160 expressed naturally on a clone of NK cell line (YT2C2), by measuring the percentage of cell labelled=percentage of binding (see FIG. 1C). For this, 2×10⁺⁵ YT2C2 cells were labelled with increasing concentration of antibodies (from 50 nM to 0.39 nM) and also with the appropriate control isotype. […] In FIG. 1C, IgG4 variants ELB01103 and ELB01104 bind more efficiently to the YT2C2 cells than the H7 IgG4 ELB01101 (which results in a EC₅₀ increased by a factor of 10 compared with H7 IgG4). This is also true for the Fab-linker-Fab format ELB01132. By contrast Fab format ELB01122 bind less efficiently to the YT2C2 cells than the H7 IgG4 ELB01101 (which results in a EC₅₀ decreased by a factor of 2 compared with H7 IgG4). This is certainly due to the monovalency of the Fab format.

[2] = molecular target: T2, recombinant human CD160 protein, …; experiment: BLI (repeats Table 7)
[3] = molecular target: T2, recombinant human CD160 protein, …; experiment: BLI
[4] = molecular target: T1, human CD160 (CD160 GPI isoform) on cells; experiment: flow cytometry, percentage of labelled YT2C2 NK cells, antibody 0.39-50 nM; the text means better binding
Experimental: as §1

[5] = molecular target: T2, recombinant human CD160 protein, …; experiment: BLI, biotinylated CD160 at 10 nM on streptavidin sensor, antibody 3.13-100 nM
Experimental: The dissociation constants and the association (kₒₙ) and dissociation (kdis) rate constants for each antibody were calculated by applying a 1:1 interaction model, with overall mathematical modelling of curves (fit) (Rmax bound by the sensor) on the ForteBio 9.0 data analysis software.

[6] = molecular target: T1, human CD160 (CD160 GPI isoform) on cells; experiment: flow cytometry on CHO-hCD160 transfectants
Experimental: The binding capacity of the anti-CD160 H7 antibodies and of the variants (D12 and A09) thereof in the IgG4 and IgG1 format and in the IgG1 E345K format was evaluated during the labelling of surface CD160 expressed in a recombinant line CHO-S-hCD160 (clone 2G10) in comparison with non-transfected CHO-S cells, by measuring the median fluorescence index (MFI) (see FIG. 1). For this, 5×10⁺⁵ 2G10 (CHO-S-CD160) and non-transfected CHO-S cells were labelled with 2 μg of each of these antibodies and also with the appropriate control isotypes. In FIG. 1, all the anti-CD160 tested (regardless of the isotype or the IgG format or the variant) specifically recognize human CD160 expressed recombinantly by the CHO-S cells.
In FIG. 1B, the IgG4 variants bind more efficiently to the CHO-hCD160 transfectants than H7 (which results in a median fluorescence increased by a factor of 2 compared with H7 IgG4 ELB01101 or with H7 IgG4 H310A-H435Q ELB01102), this being even in the presence of the H310A-H435Q mutations.

[7] = molecular target: T2, recombinant human CD160 protein, …; experiment: SPR (Biacore), design close to Example 2
[8] = molecular target: T2, recombinant human CD160 protein, …; experiment: BLI (repeats Table 8)
[9] = molecular target: T2, recombinant human CD160 protein, …; experiment: BLI, biotinylated CD160 at 10 nM on streptavidin sensor, antibody 3.13-100 nM; remark: listed apart in the source

| Binder | EC50 (read off the curve) [1] | Gain in KD/respective IgG [3] | EC50, factor against H7 IgG4 (ELB01101) [4] | Gain in KD/respective IgG [7] | Kd [7] | koff [7] | kon [7] | further results |
| --- | --- | --- | --- | --- | --- | --- | --- | --- |
| D12 IgG4 S228P/R409K (antibody, also called ELB01103; H7 IgG4 D12) heavy: not shown light: EIVLTQSPATLSLSPGERATLSCRASQSISNHLHWYQQKPGQAPRLLIKYASQSISGIPARFSGSGSGTDFTLTISSLEPEDFAVYFCQQSNSWPLTFGGGTKVEIKRTVAAPSVFIFPPSDEQLKSGTASVVCLLNNFYPREAKVQWKVDNALQSGNSQESVTEQDSKDSTYSLSSTLTLSKADYEKHKVYACEVTHQGLSSPVTKSFNRGEC | ~3 nM | 1.7 fold | 10 fold | 3.1 fold | 4.2 nM | 0.00122 s⁻¹ | 292000 M⁻¹ s⁻¹ | Kd [2]: 1.52 nM; koff [2]: 0.000752 s⁻¹; kon [2]: 494000 M⁻¹ s⁻¹; Kd [5]: 1.52 nM; koff [5]: 0.000752 s⁻¹; kon [5]: 494000 M⁻¹ s⁻¹; median fluorescence, factor against H7 IgG4 ELB01101 [6]: 2 fold |
| D12 IgG4 S228P/R409K/H310A/H435Q (antibody, also called ELB01104; H7 IgG4 D12 S228P/R409K/H310A/H435Q) heavy: QVQLVQSGAEVKKPGASVKVSCKASGYTFSDFWMQWIRQAPGQGLEWIGAIYPGDDDARVTQKFRGRATLTADKSTSTAYMELSSLRSEDTAVYYCARRGIAAVVGGFDYWGQGTTLTVSSASTKGPSVFPLAPCSRSTSESTAALGCLVKDYFPEPVTVSWNSGALTSGVHTFPAVLQSSGLYSLSSVVTVPSSSLGTKTYTCNVDHKPSNTKVDKRVESKYGPPCPPCPAPEFLGGPSVFLFPPKPKDTLMISRTPEVTCVVVDVSQEDPEVQFNWYVDGVEVHNAKTKPREEQFNSTYRVVSVLTVLAQDWLNGKEYKCKVSNKGLPSSIEKTISKAKGQPREPQVYTLPPSQEEMTKNQVSLTCLVKGFYPSDIAVEWESNGQPENNYKTTPPVLDSDGSFFLYSKLTVDKSRWQEGNVFSCSVMHEALHNQYTQKSLSLSLG light: EIVLTQSPATLSLSPGERATLSCRASQSISNHLHWYQQKPGQAPRLLIKYASQSISGIPARFSGSGSGTDFTLTISSLEPEDFAVYFCQQSNSWPLTFGGGTKVEIKRTVAAPSVFIFPPSDEQLKSGTASVVCLLNNFYPREAKVQWKVDNALQSGNSQESVTEQDSKDSTYSLSSTLTLSKADYEKHKVYACEVTHQGLSSPVTKSFNRGEC | ~3 nM | 2 fold | 10 fold | 2.9 fold | 5 nM | 0.00123 s⁻¹ | 244000 M⁻¹ s⁻¹ | Kd [8]: 1.49 nM; koff [8]: 0.000744 s⁻¹; kon [8]: 499000 M⁻¹ s⁻¹; Kd [9]: 1.49 nM; koff [9]: 0.000744 s⁻¹; kon [9]: 499000 M⁻¹ s⁻¹; median fluorescence, factor against H7 IgG4 H310A-H435Q ELB01102 [6]: 2 fold |
